Sequences and labels used below:
B1: Type II secretion system protein E (Xanthomonas campestris pv. campestris), P31742 (parent)
chain: MEQRSAETRIVEALLERRRLKDTDLVRARQLQAESGMGLLALLGRLGLVSERDHAETCAEVLGLPLVDARQLGDTPPEMLPEVQGLSLRFLKQFHLCPVGERDGRLDLWIADPYDDYAIDAVRLATGLPLLLQVGLRSEIDDLIERWYGQGRSAMGTIVETADGDASSTDDIEALRDLASEAPVIRLVNLVIQHAVELRASDIHIEPFESRLKVRYRVDGVLVEGESPPAKLTAAVISRIKIMAKLNIAERRLPQDGRIMLRVQGKELDLRVSTVPTAHGESVVMRLLDRETVVFDFYKLGFTEDFLPQFRKVLEQPHGIMLVTGPTGSGKTTTLYTALSQLNTSDVKIITVEDPVEYQIEGINQIQAKPQIGLDFANALRSIVRQDPDIIMIGEMRDLETARIAIQSALTGHLVLSTLHTNNAAGGITRLLDMGVEDYLLTSTINGILAQRLVRKLDLANAERYAASPEEIERFDLRRLQPDGEIFLYRPRATAAAPTGYLGRTTIVEFLVMNDELRRAVMRRAGMGEIEQLARKSGMRTMYEDGLSKALRGETTIEEVLRVTEDA
partner: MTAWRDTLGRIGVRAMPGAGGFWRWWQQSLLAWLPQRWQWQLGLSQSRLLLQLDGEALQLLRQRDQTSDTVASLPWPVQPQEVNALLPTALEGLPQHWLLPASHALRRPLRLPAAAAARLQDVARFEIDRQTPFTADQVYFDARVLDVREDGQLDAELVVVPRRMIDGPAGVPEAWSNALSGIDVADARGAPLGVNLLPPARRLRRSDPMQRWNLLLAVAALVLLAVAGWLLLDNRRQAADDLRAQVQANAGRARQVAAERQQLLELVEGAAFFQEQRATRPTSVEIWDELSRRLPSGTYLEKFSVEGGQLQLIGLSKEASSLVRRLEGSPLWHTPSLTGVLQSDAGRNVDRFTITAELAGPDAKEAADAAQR

These results are taken from IntAct's records for PubMed 16525507.

The variants in this assay derive from B1. Conditions: with gspl_xancp pefL.
Turning to K331M, the “effect of a mutation on the interaction” value is “disrupting interaction”.

As to R504A, the “effect of a mutation on the interaction” value is “disrupting interaction”.
